Experiment [1] concerns the target α-subunit of the P. americana high conductance calcium-activated potassium channel (pSlo) (Periplaneta americana). Put plainly: cell-based or functional assay.
In experiment [2] the target is Cav channels of P. americana DUM neurons (Periplaneta americana). The experiment in a line: cell-based or functional assay.

For the substance rU-ACTX-Hv1a (peptide), the IC50 of block of pSlo currents in HEK293 cells, whole-cell patch clamp in experiment [1] was found to be 579 nM. The same substance displayed an IC50 of block of Cav currents in DUM neurons, whole-cell patch clamp in experiment [2] of 409 nM.

The values above are taken from patent publication US20080260789A1.
